Test results taken from publication PMC10110616.

Target: Delta-C70-Ferritin-HexaPro (DCFHP), from Expi293F cells (SARS-CoV-2 (Wuhan-1 isolate) | H. pylori) (UniProt P0DTC2)
Test: SEC-MALS

Delta-C70-Ferritin-HexaPro (DCFHP), from Expi293F cells (from UniProt P0DTC2 14-1146; Q9ZLI1 5-167)
stoichiometry N: 24
